Measurements reported in the supplement of paper PMC10567573.

B1: BTBD10 (parent)
chain: FVYENAKEGARNIRTSERVTLIVD

Variants of: B1
Assay: protein stability index of a GFP-peptide fusion (GPS, HEK-293T) (PSI 1-6); higher = more stable
Conditions: c terminus: a fixed tail appended
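Note: lentivirally expressed fusions sorted by FACS into six bins by GFP to DsRed ratio, PSI derived from sequencing read proportions per bin multiplied by bin number.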

In order of falling protein stability index:
1. FVYEWAKEGARNIRTSERVTLIVD [N5W]  3.23
2. FVYENAKRGARNIRTSERVTLIVD [E8R]  2.83
3. FVYENEKEGARNIRTSERVTLIVD [A6E]  2.8
4. FVYENAKEGERNIRTSERVTLIVD [A10E]  2.79
5. FVYENAEEGARNIRTSERVTLIVD [K7E]  2.74
6. FVYENAKEGPRNIRTSERVTLIVD [A10P]  2.7
7. FVYENDKEGARNIRTSERVTLIVD [A6D]  2.67
8. FVYENADEGARNIRTSERVTLIVD [K7D]  2.58
9. FVYENASEGARNIRTSERVTLIVD [K7S]  2.56
10. FVYENANEGARNIRTSERVTLIVD [K7N]  2.54
11. FVYENTKEGARNIRTSERVTLIVD [A6T]  2.5
12. FVYENAIEGARNIRTSERVTLIVD [K7I]  2.5
13. FVYENAKEDARNIRTSERVTLIVD [G9D]  2.49
14. FVYENAKEMARNIRTSERVTLIVD [G9M]  2.47
15. FVYENAKPGARNIRTSERVTLIVD [E8P]  2.44
16. FVYENNKEGARNIRTSERVTLIVD [A6N]  2.43
17. FVYENPKEGARNIRTSERVTLIVD [A6P]  2.41
18. FVYENAPEGARNIRTSERVTLIVD [K7P]  2.4
19. FVYENAKEEARNIRTSERVTLIVD [G9E]  2.33
20. FVYENACEGARNIRTSERVTLIVD [K7C]  2.32
21. FVYENAKEGKRNIRTSERVTLIVD [A10K]  2.32
22. FVYENAKEFARNIRTSERVTLIVD [G9F]  2.31
23. FVYENAKLGARNIRTSERVTLIVD [E8L]  2.29
24. FVYENAKDGARNIRTSERVTLIVD [E8D]  2.28
25. FVYENAKEGDRNIRTSERVTLIVD [A10D]  2.26
26. FVYETAKEGARNIRTSERVTLIVD [N5T]  2.25
27. FVYENAKHGARNIRTSERVTLIVD [E8H]  2.25
28. FVYENAAEGARNIRTSERVTLIVD [K7A]  2.23
29. FVYENAKEGRRNIRTSERVTLIVD [A10R]  2.2
30. FVYENAQEGARNIRTSERVTLIVD [K7Q]  2.19
31. FVYENAKEGFRNIRTSERVTLIVD [A10F]  2.18
32. FVYENAKERARNIRTSERVTLIVD [G9R]  2.17
33. FVYENAKEGNRNIRTSERVTLIVD [A10N]  2.16
34. FVYENAKENARNIRTSERVTLIVD [G9N]  2.15
35. FVYENKKEGARNIRTSERVTLIVD [A6K]  2.13
36. FVYENAKELARNIRTSERVTLIVD [G9L]  2.12
37. FVYENATEGARNIRTSERVTLIVD [K7T]  2.11
38. FVYENAKCGARNIRTSERVTLIVD [E8C]  2.11
39. FVYENAKMGARNIRTSERVTLIVD [E8M]  2.11
40. FVYENAKTGARNIRTSERVTLIVD [E8T]  2.11
41. FVYENHKEGARNIRTSERVTLIVD [A6H]  2.1
42. FVYENAKEQARNIRTSERVTLIVD [G9Q]  2.09
43. FVYENAKETARNIRTSERVTLIVD [G9T]  2.09
44. FVYENMKEGARNIRTSERVTLIVD [A6M]  2.08
45. FVYENAKEGGRNIRTSERVTLIVD [A10G]  2.08
46. FVYENWKEGARNIRTSERVTLIVD [A6W]  2.05
47. FVYENAKEGQRNIRTSERVTLIVD [A10Q]  2.05
48. FVYENAKWGARNIRTSERVTLIVD [E8W]  2.04
49. FVYENAKEPARNIRTSERVTLIVD [G9P]  2.02
50. FVYENAKEGIRNIRTSERVTLIVD [A10I]  2
51. FVYENAGEGARNIRTSERVTLIVD [K7G]  1.99
52. FVYENGKEGARNIRTSERVTLIVD [A6G]  1.97
53. FVYENQKEGARNIRTSERVTLIVD [A6Q]  1.96
54. FVYENAHEGARNIRTSERVTLIVD [K7H]  1.95
55. FVYENAKYGARNIRTSERVTLIVD [E8Y]  1.94
56. FVYENAVEGARNIRTSERVTLIVD [K7V]  1.93
57. FVYENAKKGARNIRTSERVTLIVD [E8K]  1.93
58. FVYENAKEGLRNIRTSERVTLIVD [A10L]  1.89
59. FVYENAKIGARNIRTSERVTLIVD [E8I]  1.87
60. FVYENAREGARNIRTSERVTLIVD [K7R]  1.86
61. FVYENAKFGARNIRTSERVTLIVD [E8F]  1.86
62. FVYENAKGGARNIRTSERVTLIVD [E8G]  1.86
63. FVYENVKEGARNIRTSERVTLIVD [A6V]  1.85
64. FVYENAFEGARNIRTSERVTLIVD [K7F]  1.85
65. FVYENAKEAARNIRTSERVTLIVD [G9A]  1.85
66. FVYENRKEGARNIRTSERVTLIVD [A6R]  1.84
67. FVYENAKEGCRNIRTSERVTLIVD [A10C]  1.84
68. FVYENAKECARNIRTSERVTLIVD [G9C]  1.83
69. FVYENCKEGARNIRTSERVTLIVD [A6C]  1.82
70. FVYENAMEGARNIRTSERVTLIVD [K7M]  1.82
71. FVYENAKNGARNIRTSERVTLIVD [E8N]  1.81
72. FVYENFKEGARNIRTSERVTLIVD [A6F]  1.8
73. FVYENAKQGARNIRTSERVTLIVD [E8Q]  1.8
74. FVYENAKESARNIRTSERVTLIVD [G9S]  1.8
75. FVYENIKEGARNIRTSERVTLIVD [A6I]  1.79
76. FVYENSKEGARNIRTSERVTLIVD [A6S]  1.78
77. FVYENAKEVARNIRTSERVTLIVD [G9V]  1.77
78. FVYENAYEGARNIRTSERVTLIVD [K7Y]  1.75
79. FVYENAKEIARNIRTSERVTLIVD [G9I]  1.74
80. FVYENAKSGARNIRTSERVTLIVD [E8S]  1.72
81. FVYENAKEHARNIRTSERVTLIVD [G9H]  1.72
82. FVYENAKEKARNIRTSERVTLIVD [G9K]  1.7
83. FVYENLKEGARNIRTSERVTLIVD [A6L]  1.69
84. FVYEVAKEGARNIRTSERVTLIVD [N5V]  1.63
85. FVYENAWEGARNIRTSERVTLIVD [K7W]  1.63
86. FVYENAKEGMRNIRTSERVTLIVD [A10M]  1.62
87. FVYEYAKEGARNIRTSERVTLIVD [N5Y]  1.61
88. FVYENAKEGHRNIRTSERVTLIVD [A10H]  1.58
89. FVYENYKEGARNIRTSERVTLIVD [A6Y]  1.57
90. FVYESAKEGARNIRTSERVTLIVD [N5S]  1.54
91. FVYENAKAGARNIRTSERVTLIVD [E8A]  1.52
92. FVYENAKVGARNIRTSERVTLIVD [E8V]  1.47
93. FVYENALEGARNIRTSERVTLIVD [K7L]  1.42
94. FVYENAKEYARNIRTSERVTLIVD [G9Y]  1.41
